This is an account of results in article PMC9942873 (Immunity, 2023).

Changes are numbered by the printed parent chain.

B1: RUPA-100 (hIgG1) (antibody, V domains shown)
VH: QVQLVESGGGVVQPGRSLRLSCAASGFSFSHYGMHWVRQAPGKGLEWVAVISYDGNYKYYGDSVKGRFTISRDNFKNTLYLQMNSLRPEDTAVYYCAKGKAHSCVSTSCYTDFWGQGTLVTVPS
VL: SYELTQPPSVSVSPGQTARITCSGDALPKKYAYWYQQKSGQAPVLVIYEDSKRPSGIPERFSGSSSGTMATLTISGAQVEDEGDYYCYSTDSSYNHRGVFGGGTKLTVL
notes: IgG1; source: 293T cells, purified (Protein A), or produced as recombinant human IgG1 (GenScript)
B2: RUPA-54 (hIgG1) (antibody, V domains shown)
VH: QVQLVESGGGVVQPGRSLRLSCTASGFTFRSYGIHWVRQAPGKGLQWVAFISYDGRNKYYADSVKGRFTISRDNSKNTLYLQMSGLRADDTAVYYCAKDSDNDCTATSCYTVSWGQGTLVTVSS
VL: B1 VL with S51K, G83A, S93R, Y94T, N95D, R97G, V99I
notes: as for B1
B3: RUPA-29 (hIgG1) (antibody, V domains shown)
VH: QVHLVESGGGVVQPGRSLRLSCAASGFTFRSYGMHWVRLAPGKGLEWVTAIWYDGSKKHFADSVKGRFTISRDNSKNTLYLQMSSLRVEDTAVYYCARDFAHGAFYPVDWGRGTLVTVSS
VL: SYELTQPPSVSVSPGQTARITCSGDALPKKHAYWYQQKSGQAPVLVIYDDSKRPSGIPERFSGSSSGTMATLSISGAQVEDEAAYYCYSSDTSANYWVFGGGTKLTVL
notes: as for B1
B4: RUPA-50 (hIgG1) (antibody, V domains shown)
VH: QVHLVESGGGVVQPGRSLRLSCAASGFTFRSYGMHWVRRVPGKGLEWVATISYDETFKDYPDSVKGRFTISRDNSKNTLFLQMNSLRPADTAVYYCAKDRAHSMHYFEYWGRGTLVTVSS
VL: SYELTQPPSVSVSPGQTARLTCSGDALPKKFAYWYQLKSGQAPVLVIYEDSKRPSGIPERFSGSSSGTTATLTISGAQVEDEADYYCYSRDGSGDQKNIFGGGTKLTVL
notes: as for B1
B5: RUPA-58 (hIgG1) (antibody, V domains shown)
VH: QVQLVQSGPEAKKPGASVKVSCQASGYPFSGYYMHWLRQAPGQGLEWMGWMNPNSGGTKYAQRFQGRVTMTRDTSISTAHMELRGLRSDDTAVYYCARDYCTGSSCYRTDYDYWGQGTLVTVSS
VL: DIQMTQSPSSLSASVGDRVTITCRASQIISTYLNWYQHKPGKAPKLLIKSASTLQSGVPSRFSGSGSGTDFTLTITSLQPEDFATFYCQQSYRDPITFGQGTRLEIK
notes: as for B1
B6: RUPA-43 (antibody, V domains shown)
VH: QVLLVQSGAEVKKPGASVKVSCKASGYTFLYHDISWVRQATGQGLEWMGWMNPNTGDTGYAQRFQGRVTMTRDMSISTAYLELGSLSSEDTAVYYCARGVGSYHGSGGWLDPWGQGTLVIVSS
VL: QSVLTQPPSVSETPGQRVTISCSGTSSNIGINTVNWYQQLPGTAPKLLIHNDNQRPSGVPDRFAGSKSGSSAALAISGLQSEDEADYYCGTWDDSLKRRVFGGGTKLTVL
notes: human IgG1; source: recombinant human IgG1, 293T (Protein A purified) or GenScript
B7: RUPA-34 (antibody, V domains shown)
VH: EVQLVESGGGLIQPGGSLRLSCAASGFTVSSNYMSWVRQAPGKGLEWVSVIYSGGSGGSTYYADSVKGRFTISRDNLKNTLYLQMNNLRAEDAAVYYCVRDSRGWGYFDDWGQGTLVTVSS
VL: EVVLTQSPGTLSLSPGERATLSCRASQSIRTNYLAWYQQKPGQTPRLLIYGASSRATGIPDRFSGSGSGTDFTLTISRLEPEDFAVYFCQQYQNSPWTFGQGTKVEIK
notes: as for B6
B8: RUPA-41 (antibody, V domains shown)
VH: QVQLVQSGAELKKPGASVKVSCKASGYTFTSHDITWVRQAAGQGLEWMGWMNPNTGDKGYAQKFQGRVTLTRNMSTRTAYMELNSLTSEDTAVYYCARGVGTYHGAGGWFDPWGQGTLVTVSS
VL: QSVVTQPPSVSETPGQRVTISCSGSSSNIGSNIVSWYQQLPGTAPKLLIYSDTQRPSGVPDRFSASKSGTSASLAISGLHSEDEADYYCATWDDSLKRGVFGGGTKLTVL
notes: as for B6
B9: RUPA-42 (antibody, V domains shown)
VH: QVQLQESGPGLVKPSQTLSLTCTVSGGSISSGGYYWSWIRQHPGKGLEWIGYIYYSGTTYYHPSLESRVTISVDTSKNQFSLKLNSVTAADTAIYYCARAGLVAAIRGSRRGQQGDYFDHWGQGTLVTVSS
VL: SYELTQPPSVSVSPGQTASITCSGEKLGDRYVSWYQQKPGQSPLLVLHQDKKRPSGIPERFSGSNSGNTATLTISGTQALDEADYFCQAWDSSTGVFGGGTKLTVL
notes: as for B6
B10: RUPA-154 (antibody, V domains shown)
VH: QVQLVQSGAEVRKPGASVKVSCRTSGYTFTDYYMHWVRQAPGEGLEWMGSINPKSGGTSYAERFQGRVTMTMETSVSTAYLDLSSLRSDDTAVYYCARLLYSRAVYYYGMDVWGQGTTVTVSS
VL: SYELTQPPSVSVAPGKTARITCGGKDLGSKSVHWYQQKPGQAPVLVIYYDNIRPSGIPERFSGSNSGNTATLTISRVEAGDEADYYCQVWDSSSDHYVFGRGAKVTVL
notes: as for B6
B11: RUPA-160 (antibody, V domains shown)
VH: QVQLVQSGAEVKKPGASVKASCKASGYTFDNFDIIWARQATGQGLEWMGWMNPNTGKKGYAQNLKDRVTMTRDSSISTAYLELSSLRSEDTAVYYCVRAVGSYYGSGGWFDPWGQGTLVTVSS
VL: QSVLTQPPSASGTPGQRVTIACSGSSSNIGGNNVKWYQQLPGTAPKLVIYNNDERPPGVPDRVSGSKSGTSASLAISGVQSEDEADYYCATWDDSMKREVFGGGTKLTVL
notes: as for B6
B12: RUPA-140 (antibody, V domains shown)
VH: EVQLLESGGGLVQPGGSLRLSCVASGFSFSNFAMNWVRQAPGKGLEWVSAISGSGGSTYYIDSVKGRFSISRDTSKNTLYLQMNSLRAEDTAVYYCAKVGGRSIFGEATDYWGQGSLVTVSS
VL: DIQMTQSPSSLSASVGDRVTITCRASQSINKYLNWYQQKPGRAPKLLIQVASSLQSGVPSRFSGSGSGTDFTLTISSLQPEDFATYYCQQTYTLPLIFGGGTKVEIK
notes: source: recombinant human IgG1, 293T (Protein A purified) or GenScript
B13: RUPA-100 (antibody, V domains shown)
VH: B1 VH
VL: B1 VL
notes: as for B6
B14: RUPA-117 (antibody, V domains shown)
VH: QLQLQESGPGLVKPSETLSLTCTVSGGSISRSPYYWGWIRQPPGKGLEWFGSVYNNGSTYYNPSLKSRVTISVDTSKNQFSLKLSSVTAADTALYYCARHGGSTGMKVVVIAPPDYWGQGTLVTVSS
VL: DIQMTQSPATLSASVGDRVTITCRASQSISIWLAWYQQKPGEAPKLLIYKASSLQSGVPSRFSGSASGTKFSLTISSLQPDDFATFYCQQYHSYPYTFGQGTKLEIK
notes: as for B6
B15: RUPA-89 (antibody, V domains shown)
VH: DVYLLESGGGLVQPGGSLRLSCAASGFTFSNDAMSWVRQAPGKGLEWVSGILASAPRTYYADSVKGRFIISRDNSKNTLYLQMNSLRVEDTAIYYCAKEGILRPFDPWGQGTLVTVSS
VL: QSALTQPASMSGSPGQSITISCTGTSSDVGGFKYVSWYQHHPDKAPKLIIYEVNQRPSGVSNRFSGSKSGNTASLTISGLQAEDEADYYCSSYTSITYHHVFGTGTKVTVL
notes: as for B6
B16: RUPA-106 (antibody, V domains shown)
VH: EVELLESGGGLVQPGGSLRISCAASGFIFNTYAMSWVRQAPGKGLEWVSAISGSGRSTYYADSVKGRFTISRDNSNNTLYLQMNSLRAEDTAVYYCAKDTHSNILYYLFDYWGQGTLVTVSS
VL: EIVLTQSPATLSLSPGERGTLSCRASQSVSSSYLGWYQQKPGQAPRLLIYGASSRATGIPDRFSGSGSGTDFTLTISRLEPEDFAVYYCHQYGISPATFGQGTKVEIK
notes: as for B6

T3 sequence (Q8I6T1 287-428): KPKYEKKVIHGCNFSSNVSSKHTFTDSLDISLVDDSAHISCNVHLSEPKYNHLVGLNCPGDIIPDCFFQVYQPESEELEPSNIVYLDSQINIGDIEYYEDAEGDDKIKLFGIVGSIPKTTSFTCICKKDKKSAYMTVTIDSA
T1 sequence (Q8I6T1 28-289): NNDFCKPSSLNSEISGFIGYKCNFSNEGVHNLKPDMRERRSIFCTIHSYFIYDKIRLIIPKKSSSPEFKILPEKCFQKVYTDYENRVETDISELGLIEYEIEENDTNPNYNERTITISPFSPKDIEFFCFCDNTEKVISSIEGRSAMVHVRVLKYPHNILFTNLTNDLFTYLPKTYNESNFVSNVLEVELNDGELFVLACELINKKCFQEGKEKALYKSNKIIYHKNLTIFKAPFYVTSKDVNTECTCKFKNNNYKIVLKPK
Sequence of Pfs48/45 D1-2 (N28-K289) (Q8I6T1 whole entry, looked up): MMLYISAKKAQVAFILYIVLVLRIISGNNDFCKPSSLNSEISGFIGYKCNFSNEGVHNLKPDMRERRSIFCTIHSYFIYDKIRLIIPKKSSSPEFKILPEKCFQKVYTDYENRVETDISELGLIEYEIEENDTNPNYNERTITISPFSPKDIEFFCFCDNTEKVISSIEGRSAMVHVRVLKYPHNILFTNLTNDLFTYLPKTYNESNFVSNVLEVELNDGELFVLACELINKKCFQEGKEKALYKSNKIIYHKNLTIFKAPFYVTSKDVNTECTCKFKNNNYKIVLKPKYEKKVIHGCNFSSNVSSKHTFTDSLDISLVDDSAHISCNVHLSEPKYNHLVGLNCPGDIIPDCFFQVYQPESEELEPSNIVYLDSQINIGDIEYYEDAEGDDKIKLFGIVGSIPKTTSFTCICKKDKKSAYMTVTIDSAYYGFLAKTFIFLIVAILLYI

One assay deals with Pfs48/45 D3 (K287-A428) (Plasmodium falciparum 3D7, UniProt Q8I6T1). The assay can be described thus: ELISA. To be noted: both partners purified.
Sequence of Pfs48/45 D3 (K287-A428) (Q8I6T1 whole entry, looked up): as above
As to B1, the binding result was “binds”.

With B2, the binding result is recorded as “binds”.

In the case of B3, the binding result is “binds”.

For B4, the binding result is “binds”.

The next assay has as its target Pfs48/45 D1-2 (N28-K289) (Plasmodium falciparum 3D7, UniProt Q8I6T1). The assay can be described thus: ELISA. To be noted: both partners purified.
Consider B5, for which the binding result is “binds”.

The next assay concerns the target T1, Pfs48/45 D1-2 (Plasmodium falciparum 3D7, UniProt Q8I6T1). The assay can be described thus: ELISA. The note with it: both partners purified.
As for B6, the binding result is “binds”.

On to B7, for which the binding result is on record as “binds”.

With B8, the binding result is listed as “binds”.

Take B9: the binding result is on record as “no binding (tested: 10 ug/ml)”.

The target of a further assay is T2, recombinant full-length Pfs48/45 (Plasmodium falciparum 3D7, UniProt Q8I6T1). The assay can be described thus: ELISA. To be noted: both partners purified.
T2 sequence (Q8I6T1 28-428): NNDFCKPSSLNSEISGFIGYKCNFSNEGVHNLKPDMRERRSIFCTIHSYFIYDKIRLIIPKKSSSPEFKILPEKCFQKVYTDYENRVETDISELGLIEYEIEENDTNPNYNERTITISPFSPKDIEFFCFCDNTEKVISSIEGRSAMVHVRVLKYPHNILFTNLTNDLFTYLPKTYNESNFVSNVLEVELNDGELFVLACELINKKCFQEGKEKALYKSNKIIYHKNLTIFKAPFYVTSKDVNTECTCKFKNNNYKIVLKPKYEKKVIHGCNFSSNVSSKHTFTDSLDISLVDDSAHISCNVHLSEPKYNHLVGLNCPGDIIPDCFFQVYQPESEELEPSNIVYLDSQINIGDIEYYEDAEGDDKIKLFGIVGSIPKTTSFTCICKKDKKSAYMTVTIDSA
For the molecule B6, the binding result is reported as “binds”.

Consider B7, for which the binding result is reported as “binds”.

B8: the binding result was “binds”.

As to B9, the binding result was “binds”.

The next assay addresses T3, Pfs48/45 D3 (Plasmodium falciparum 3D7, UniProt Q8I6T1). The assay can be described thus: ELISA. To be noted: both partners purified.
For B6, the binding result is listed as “no binding (tested: 10 ug/ml)”.

Consider B7, for which the binding result is on record as “no binding (tested: 10 ug/ml)”.

As to B8, the binding result is listed as “no binding (tested: 10 ug/ml)”.

Regarding B9, the binding result was “binds”.

The target of the next assay is T4, Pfs48/45 D2-3 (Plasmodium falciparum 3D7, UniProt Q8I6T1). The assay can be described thus: ELISA. The note with it: both partners purified.
T4 sequence (Q8I6T1 184-428): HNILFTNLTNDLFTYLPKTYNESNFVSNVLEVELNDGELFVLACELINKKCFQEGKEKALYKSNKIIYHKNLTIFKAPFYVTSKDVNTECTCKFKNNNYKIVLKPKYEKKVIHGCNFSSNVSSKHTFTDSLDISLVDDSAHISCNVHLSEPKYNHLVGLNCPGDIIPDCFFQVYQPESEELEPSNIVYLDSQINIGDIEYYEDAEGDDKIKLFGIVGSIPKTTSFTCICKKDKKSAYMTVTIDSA
Take B6: the binding result is listed as “binds”.

For B7, the binding result is on record as “binds”.

In the case of B8, the binding result is given as “binds”.

With B9, the binding result is reported as “binds”.

In another assay the target is T1, Pfs48/45 D1-2. The assay can be described thus: ELISA. The note with it: both partners purified. The source holds these as a separate data set.
Consider B10, for which the binding result is “binds”.

Turning to B11, the binding result is given as “binds”.

Another assay has as its target T2, recombinant full-length Pfs48/45. The assay can be described thus: ELISA. The note with it: both partners purified. The source holds these as a separate data set.
B12: the binding result was “binds”.

B10: the binding result is on record as “binds”.

Take B13: the binding result is “binds”.

Turning to B14, the binding result is reported as “binds”.

In the case of B11, the binding result was “binds”.

As to B15, the binding result is recorded as “binds”.

In the case of B16, the binding result is given as “binds”.

A further assay addresses T3, Pfs48/45 D3. The assay can be described thus: ELISA. To be noted: both partners purified. This is another data set of the same source.
On to B12, for which the binding result is reported as “binds”.

As to B10, the binding result was “binds”.

In the case of B13, the binding result is recorded as “binds”.

For the molecule B14, the binding result is “binds”.

For B11, the binding result is “no binding (tested: 10 ug/ml)”.

Take B15: the binding result was “binds”.

In the case of B16, the binding result is “binds”.

The target in another assay is T4, Pfs48/45 D2-3. The assay can be described thus: ELISA. The note with it: both partners purified. The source holds these as a separate data set.
For B12, the binding result is “binds”.

In the case of B10, the binding result is listed as “binds”.

Regarding B13, the binding result is on record as “binds”.

As to B14, the binding result is given as “binds”.

Turning to B11, the binding result was “binds”.

With B15, the binding result is “binds”.

On to B16, for which the binding result is “binds”.
